According to patent US20240358805A1 (BRIGHAM AND WOMEN S HOSPITAL, published 2024):

T1: NETL-1 cyclized synthetic peptide immunogen (cyclized on resin through the cysteines C4 and C27; N-terminal cysteine used for conjugation to maleimide-activated plates)
T1 construct: Aβ residues 9-18, then Pro-Asn, then the same ten residues backwards; also called cyclized peptide; the immunogen
T1 peptide: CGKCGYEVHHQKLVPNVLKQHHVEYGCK

T2: peptide mimetic 1
T2 construct: also called peptide 1
T2 peptide: QIYEVHHRGYTD

T3: peptide mimetic 2
T3 construct: As for peptide mimetic 1; also called peptide 2
T3 peptide: NLHQYPTAMQAR

T4: peptide mimetic 3
T4 construct: As for peptide mimetic 1; also called peptide 3
T4 peptide: SPPTYEIHHFSP

T5: peptide mimetic 4
T5 construct: As for peptide mimetic 1; also called peptide 4
T5 peptide: YQIHHNTQKRGG

T6: peptide mimetic 5
T6 construct: As for peptide mimetic 1; also called peptide 5
T6 peptide: DSVVPSYEVHHK

T7: peptide mimetic 6
T7 construct: As for peptide mimetic 1; also called peptide 6
T7 peptide: TPNNTTSHRYPD

T8: peptide mimetic 7
T8 construct: As for peptide mimetic 1; also called peptide 7
T8 peptide: GWYEIHHPSQRA

T9: peptide mimetic 9
T9 construct: As for peptide mimetic 1; also called peptide 9
T9 peptide: GPHTYPPQIALT

T10: peptide mimetic 10
T10 construct: As for peptide mimetic 1; also called peptide 10
T10 peptide: EMAPVASANLPP

T11: peptide mimetic 12
T11 construct: As for peptide mimetic 1; also called peptide 12
T11 peptide: SPSHMYPSSLIQ

T12: peptide mimetic 8
T12 construct: As for peptide mimetic 1; also called peptide 8
T12 peptide: SYELHHKPLHAQ

T13: peptide mimetic 11
T13 construct: As for peptide mimetic 1; also called peptide 11
T13 peptide: NMYEWNHKDPNM

T14: peptide mimetic 13
T14 construct: As for peptide mimetic 1; also called peptide 13
T14 peptide: QVYEVHHRGYTD

B1: monoclonal antibody 71A1 (antibody, V domains shown)
VH: EVQLQESGAELVRPGVSVKLSCKTSDYTFTSYWLHWFKQRPEQGLERIGEIDPSNGDADYSEKFKSKATLTVDKSSTTAYMQLASLTSEDSAVYYCAREAYGHYFDYWGQGTTLTVSS
VL: DVVMTQTPLSLPVSLGDQASISCRSSQSLEHSNGNTYLHWYLQKPGQSPKLLIYKLSNRFSGVPDRFSGSGSGTDFTLKISRVEAEDLGVYFCSQSTHVPYTFGGGTKLEIK
notes: Biotinylated when used as capture on streptavidin beads, resin or plates; also called Mab 71A1; mab 71 A1
B2: monoclonal antibody 1G5 (antibody, V domains shown)
VH: QVQLQQPGAELVRPGVSVKLSCKTSDYTFTSYWLHWFKQRPEQGLERIGEIDPSNGDADYSEKFKSKATLTVDKSSTTAYMQLASLTSEDSAVYYCAREAYGHYFDYWGQGTTLTVSS
VL: DVVMTQTPLSLPVSLGDQASISCRSSQSLEHSNGNTYLHWYLQKPGQSPKLLIYKLSNRFSGVPDRFSGSGSGTDFTLKISRVEAEDLGVYFCSQSTHVPYTFGGGTKLEIK
notes: Biotinylated when used as capture; also called Mab 1G5; isolate 1g

Tests used:
[1] = target: T1, NETL-1 cyclized synthetic peptide …; assay: indirect ELISA, peptide on maleimide-activated plate
Description: (§1) The rationale behind the NETL-1 immunogen was that a more focused epitope formed by a cyclized peptide may restrict the response to a dimer structure derived from the chosen 10aa sequence with minimal or no induction of responses to the monomer 10aa peptide sequence found within full length Aβ40. Both responses were observed. We can account for this, in part, by the fact that there may always be a minimal epitope available for recognition that is cross-reactive with the monomer sequence no matter how small the peptide structure. Several monoclonal antibodies specific for both NETL-1 and NETL-2 were isolated. Two isolates, 7a and 1g stood out that bound to NETL-1 but not to NETL-2 or Aβ40. These isolates were sub-cloned for further characterization. Two isolated subclones, Mab 71A1 and 1G5 were chosen, grown in tissue culture and purified for confirmation of specificity and for future studies. Both 71A1 and 1G5 monoclonal antibodies bound to the cyclized peptide, NETL-1 and not to control wells, Aβ40 monomer peptide or control peptide NETL-2 (FIG. 2). FIG. 2 is a standard, indirect enzyme linked immunosorbent assay (ELISA) with the purified monoclonal antibodies assayed for binding to Aβ40, NETL 1 or NETL 2 peptides conjugated to malemide-activated (SH-reactive) micro titer plates. After one hour incubation, the wells were washed and then 100 ul of a secondary, Horseradish peroxidase (HRPO)-conjugated goat anti-mouse antibody was added and the plates, incubated for an additional hour before addition of TMB (3,3′,5,5′-Tetramethylbenzidine) substrate. Absorbance was measured in a spectrophotometer at 650 nm.

[2] = target: T15, full length Aβ40 with a C-terminal cysteine (conjugated to maleimide-activated plate through the added cysteine); assay: as above
T15 construct: also called Aβ40 monomer peptide
Description: as §1

[3] = target: T2, peptide mimetic 1; assay: phage display panning (Ph.D.-12 library) on immobilized 71A1
Description: (§2) A New England Biolabs (NEB) Ph.D.-12™ Phage Display Peptide Library Kit (instructions attached) was used to isolate amino acid residue peptide ligands (referred to herein as peptide mimetics) that bound to immobilized Mab 71A1. The New England Biolabs Ph.D.-12™ Phage Display Peptide Library Kit is a combinatorial library of random, 12 amino acid peptides (12-mers) fused to a minor coat protein (pIII) of the M13 bacteriophage. The peptide was expressed as a fusion with a coat protein that produces a display of the fused protein on the surface of the bacteriophage. The library consists of 2.7×109 electroporated sequences, amplified once to yield approximately 55 copies of each sequence in 10 μl of the supplied phage.
(§3) Immobilized 71A1 antibody was used to isolate the 12 amino acid peptides, shown in FIG. 13, that bound to the variable region. Thermo Scientific™ AminoLink Plus Coupling Resin was used to immobilize Mab 71A1. Negative control particles were made using monoclonal antibody 3C7 with specificity for an irrelevant peptide sequence. The Thermo Scientific™ AminoLink Plus Coupling Resin Protocol is provided that was used to produce the 71A1 particles panned with the NEB library. Briefly, 2 mL aminolink particle slurry was washed twice with 10 mL, 0.1 M sodium bicarbonate buffer pH 10 in a 15 mL conical tube by centrifugation for 10 minutes at 2000×g. 10 mgs of 71A1 antibody in this binding buffer was then added to the particles transferred to a 2 mL eppendorph tube and rotated at room temperature for 2 hours. The slurry was then added to a Millipore, Ultrafree-MC centrifugal filter unit and the resin washed 3× in 2 mL, 0.1M sodium phosphate, 0.15M NaCl, pH 7.2 binding buffer. Spun particles were then mixed with 2 mL pH 7.2 buffer and 40 μl of 50 mM Sodium Cyanoborohydride Solution and rotated for 4 hours. The aminoLink gel contains aldehyde functional groups that spontaneously react with primary amines on the antibody. The Schiff base bonds that form are then reduced to stable secondary amine bonds in the presence of the mild reducing agent, sodium cyanoborohydride. Particles were then washed twice with 2 mL 1M Tris HCL, pH 7.4, resuspended in 2 mL of this same buffer and 40 μl Sodium cyanoborohydride to block unbound sites on the particles, and rotated for 30 minutes. Particles washed 5 times with 1M sodium chloride were suspended in 1 mL PBS.

[4] = target: T3, peptide mimetic 2; assay: as above
Description: as §2, §3

[5] = target: T4, peptide mimetic 3; assay: as above
Description: as §2, §3

[6] = target: T5, peptide mimetic 4; assay: as above
Description: as §2, §3

[7] = target: T6, peptide mimetic 5; assay: as above
Description: as §2, §3

[8] = target: T7, peptide mimetic 6; assay: as above
Description: as §2, §3

[9] = target: T8, peptide mimetic 7; assay: as above
Description: as §2, §3

[10] = target: T9, peptide mimetic 9; assay: as above
Description: as §2, §3

[11] = target: T10, peptide mimetic 10; assay: as above
Description: as §2, §3

[12] = target: T11, peptide mimetic 12; assay: as above
Description: as §2, §3

[13] = target: T16, soluble Aβ / Aβ oligomers (oAβ) of human AD brain extracts (human, UniProt P05067 672-713); assay: 71A1 capture / 3D6 detector sandwich immunoassay, sample with or without 8M GnCl
T16 construct: Natural mixture; also called Aβ from human brain soaking extract; AD brain soaking extract oAβ
T16 sequence (P05067 672-713): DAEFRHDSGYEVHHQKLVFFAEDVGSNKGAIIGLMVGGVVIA

[14] = target: T17, Aβ / Aβ oligomers in human CSF (human, UniProt P05067 672-713); assay: as above
T17 construct: Natural mixture; also called CSF Aβ; CSF Aβ oligomers
T17 sequence (P05067 672-713): as above

[15] = target: T18, Aβ oligomers (oAβ) in human plasma (human, UniProt P05067 672-713); assay: as above
T18 construct: Natural mixture; also called plasma oAβ; 71A1-positive oligomers in plasma
T18 sequence (P05067 672-713): as above

[16] = target: T12, peptide mimetic 8; assay: indirect ELISA, peptide at 10 µg/mL on maleimide-activated plate, absorbance at 650 nm
Protocol: (§4) A standard, indirect enzyme linked immunosorbent assay (ELISA) with purified monoclonal antibody 71A1 was used to assay for binding to peptide mimetics 1-13 (sequences in FIG. 13) conjugated to maleimide-activated micro titer plates at 10 μg/mL in 0.1M Sodium bicarbonate buffer pH10 and blocked with PBS and 2% BSA. After one hour incubation, the wells were washed and then 100 ul of a secondary, Horseradish peroxidase (HRPO)-conjugated goat anti-mouse antibody was added and the plates, incubated for an additional hour before addition of TMB (3,3′,5,5′-Tetramethylbenzidine) substrate. Absorbance was measured in a spectrophotometer at 650 nm.

[17] = target: T13, peptide mimetic 11; assay: as above
Protocol: as §4

[18] = target: T14, peptide mimetic 13; assay: as above
Protocol: as §4

[19] = target: T19, S26C Aβ40 reduced by DTT to its monomeric form; assay: 71A1 capture / 3D6 detector sandwich immunoassay, S26C Aβ40 dimer native or reduced by DTT
T19 construct: The dimer of m16 after reduction with DTT; also called reduced monomeric counterpart; monomeric Aβ

| Binder | binding result [1] | binding result [2] | binding result [3] | binding result [4] | binding result [5] | binding result [6] | binding result [7] | binding result [8] | binding result [9] | binding result [10] | binding result [11] | binding result [12] | decrease of 71A1/3D6 signal after 8M GnCl denaturation [13] [%] | decrease of 71A1/3D6 signal after 8M GnCl denaturation [14] [%] | decrease of 71A1/3D6 signal after 8M GnCl denaturation [15] [%] | binding result [16] | binding result [17] | binding result [18] | fold less binding than to higher order Aβ (non-reduced S26C dimer) [19] [fold] |
| --- | --- | --- | --- | --- | --- | --- | --- | --- | --- | --- | --- | --- | --- | --- | --- | --- | --- | --- | --- |
| B1 | binds | no binding | binds | binds | binds | binds | binds | binds | binds | binds | binds | binds | > 70 | > 99 | > 84 | binds | binds | binds | > 100 |
| B2 | binds | no binding | – | – | – | – | – | – | – | – | – | – | – | – | – | – | – | – | – |
